Measurements: paper PMC7954794, “Protein context shapes the specificity of SH3 domain-mediated interactions in vivo” (Nature Communications, 2021)

Tested on: growth of yeast strains under 51 stress conditions
Assay: Growth assays in 51 stress conditions (Fig. 1E-F, S2D, S5B)
Format: cell-based, Saccharomyces cerevisiae
Parameters: key to Growth (Fig. S2D) / growth of ABP1 SH3-swapped strains in stress condition: log2 colony size, average of median per strain (growth score)
Settings: ABP1 SH3-swapped strains
Outline: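 Yeast WT, SH3-deleted, KO, SH3-swapped and SH3-shuffled strains pinned in 1536 format, 12 replicates each; pregrown on YPD 2 days at 30 °C, then replicated onto 51 media at 37 °C and imaged every 2 h. Growth score = mean of per-plate median log2 colony size at 74 h.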

B1: BOI1 (protein, UniProt P38041 1-980, looked up)
BEM1-interacting protein 1: MSLEGNTLGKGAKSFPLYIAVNQYSKRMEDELNMKPGDKIKVITDDGEYNDGWYYGRNLRTKEEGLYPAVFTKRIAIEKPENLHKSPTQESGNSGVKYGNLNDSASNIGKVSSHQQENRYTSLKSTMSDIDKALEELRSGSVEQEVSKSPTRVPEVSTPQLQDEQTLIQEKTRNEENTTHDSLFSSTADLNLSSESLKNISKSNISTKSLEPSSESVRQLDLKMAKSWSPEEVTDYFSLVGFDQSTCNKFKEHQVSGKILLELELEHLKELEINSFGIRFQIFKEIRNIKSAIDSSSNKLDADYSTFAFENQAAQLMPAATVNRDEIQQQISSKCNKLSSESSDRKSSSVTTELQRPSSVVVNPNFKLHDPAEQILDMTEVPNLFADKDIFESPGRAPKPPSYPSPVQPPQSPSFNNRYTNNNARFPPQTTYPPKNKNPTVYSNGLIPNSSTSSDNSTGKFKFPAMNGHDSNSRKTTLTSATIPSINTVNTDESLPAISNISSNATSHHPNRNSVVYNNHKRTESGSSFVDLFNRISMLSPVKSSFDEEETKQPSKASRAVFDSARRKSSYGHSRDASLSEMKKHRRNSSILSFFSSKSQSNPTSPTKQTFTIDPAKMTSHSRSQSNSYSHARSQSYSHSRKHSLVTSPLKTSLSPINSKSNIALAHSETPTSSNNKEAVSQPSEGKHKHKHKHKSKHKHKNSSSKDGSSEEKSKKKLFSSTKESFVGSKEFKRSPSELTQKSTKSILPRSNAKKQQTSAFTEGIRSITAKESMQTADCSGWMSKKGTGAMGTWKQRFFTLHGTRLSYFTNTNDEKERGLIDITAHRVLPASDDDRLISLYAASLGKGKYCFKLVPPQPGSKKGLTFTEPRVHYFAVENKSEMKAWLSAIIKATIDIDTSVPVISSYATPTIPLSKAQTLLEEARLQTQLRDAEEEEGRDQFGWDDTQNKRNSNYPIEQDQFETSDYLESSAFEYPGGRL
Growth (Fig. S2D) (Bathophenanthroline.0.1uM): 10.8558
Growth (Fig. S2D) (Bathophenanthroline.10uM): 10.6819
Growth (Fig. S2D) (Bathophenanthroline.1uM): 10.8124
Growth (Fig. S2D) (CaCl2.100mM): 10.8898
Growth (Fig. S2D) (CaCl2.250mM): 10.7569
Growth (Fig. S2D) (CaCl2.500mM): 10.2369
Growth (Fig. S2D) (Caffein.10mM): 9.961
Growth (Fig. S2D) (Caffein.2mM): 10.9473
Growth (Fig. S2D) (CdCl2.100uM): 9.222
Growth (Fig. S2D) (CdCl2.10uM): 10.8438
Growth (Fig. S2D) (CdCl2.50uM): 9.731
Growth (Fig. S2D) (CuSO4.1mM): 10.511
Growth (Fig. S2D) (CuSO4.5mM): 7.921
Growth (Fig. S2D) (Cycloheximide.0.05.uM): 11.026
Growth (Fig. S2D) (Cycloheximide.0.2.uM): 10.6068
Growth (Fig. S2D) (Cycloheximide.0.5.uM): 10.1487
Growth (Fig. S2D) (DMSO.2.): 10.9996
Growth (Fig. S2D) (DMSO.6.): 9.7528
Growth (Fig. S2D) (DMSO.8.): 9.017
Growth (Fig. S2D) (Ethanol.2.): 10.7382
Growth (Fig. S2D) (Ethanol.6.): 10.327
Growth (Fig. S2D) (Ethanol.8.): 10.13
Growth (Fig. S2D) (Galactose.2.): 10.7623
Growth (Fig. S2D) (Glycerol.2.): 9.776
Growth (Fig. S2D) (Hydroxyurea.25mM): 10.8154
Growth (Fig. S2D) (Hygromycin.190uM): 11.0114
Growth (Fig. S2D) (Hygromycin.19uM): 10.9627
Growth (Fig. S2D) (Hygromycin.95uM): 10.9456
Growth (Fig. S2D) (MMS.0.004.): 11.0063
Growth (Fig. S2D) (MMS.0.02.): 10.7015
Growth (Fig. S2D) (MMS.0.04.): 10.0905
Growth (Fig. S2D) (Menadione.100uM): 10.612
Growth (Fig. S2D) (Menadione.200uM): 10.4246
Growth (Fig. S2D) (Menadione.50uM): 10.8341
Growth (Fig. S2D) (NaCl.0.25M): 10.7827
Growth (Fig. S2D) (NaCl.1M): 9.573
Growth (Fig. S2D) (Nitroquinoline.10uM): 10.6267
Growth (Fig. S2D) (Nitroquinoline.50uM): 10.6407
Growth (Fig. S2D) (Nystatin.0.01uM): 11.0406
Growth (Fig. S2D) (Nystatin.0.1uM): 11.0134
Growth (Fig. S2D) (Raffinose.2.): 11.0354
Growth (Fig. S2D) (Rapamycin.10nM): 9.9199
Growth (Fig. S2D) (Rapamycin.50nM): 9.475
Growth (Fig. S2D) (SC.pH3): 10.3897
Growth (Fig. S2D) (SC.pH6): 10.9841
Growth (Fig. S2D) (SDS.0.01.): 10.9238
Growth (Fig. S2D) (SDS.0.02.): 11.0048
Growth (Fig. S2D) (SDS.0.05.): 10.8898
Growth (Fig. S2D) (Sorbitol.10mM): 10.9854
Growth (Fig. S2D) (Sorbitol.1mM): 11.0069
Growth (Fig. S2D) (Sorbitol.5mM): 10.9417
